Data as given in IntAct's records for PubMed 35512704.

B1: Mothers against decapentaplegic homolog 4 (Homo sapiens), Q13485 (parent)
chain: MDNMSITNTPTSNDACLSIVHSLMCHRQGGESETFAKRAIESLVKKLKEKKDELDSLITAITTNGAHPSKCVTIQRTLDGRLQVAGRKGFPHVIYARLWRWPDLHKNELKHVKYCQYAFDLKCDSVCVNPYHYERVVSPGIDLSGLTLQSNAPSSMMVKDEYVHDFEGQPSLSTEGHSIQTIQHPPSNRASTETYSTPALLAPSESNATSTANFPNIPVASTSQPASILGGSHSEGLLQIASGPQPGQQQNGFTGQPATYHHNSTTTWTGSRTAPYTPNLPHHQNGHLQHHPPMPPHPGHYWPVHNELAFQPPISNHPAPEYWCSIAYFEMDVQVGETFKVPSSCPIVTVDGYVDPSGGDRFCLGQLSNVHRTEAIERARLHIGKGVQLECKGEGDVWVRCLSDHAVFVQSYYLDREAGRAPGDAVHKIYPSAYIKVFDLRQCHRQMQQQAATAQAAAAAQAAAVAGNIPGPGSVGGIAPAISLSAAAGIGVDDLRRLCILRMSFVKGWGPDYPRQSIKETPCWIEIHLHRALQLLDEVLHTMPIADPQPLD

Variants of: B1
Conditions: with spop_human SPOP

Row | effect of a mutation on the interaction | Variant
1 | with no effect | D351H

Variants of: B1
Conditions: with src_human SRC

Row | effect of a mutation on the interaction | Variant
2 | with no effect | D351H

Variants of: B1
Conditions: with stat3_human STAT3, P40763

Row | effect of a mutation on the interaction | Variant
3 | with no effect | D351H

Variants of: B1
Conditions: with stk38_human STK38, Q15208

Row | effect of a mutation on the interaction | Variant
4 | with no effect | D351H

Variants of: B1
Conditions: with ksyk_human SYK

Row | effect of a mutation on the interaction | Variant
5 | with no effect | D351H

Variants of: B1
Conditions: with eloc_human ELOC

Row | effect of a mutation on the interaction | Variant
6 | with no effect | D351H

Variants of: B1
Conditions: with tfe2_human TCF3, P15923

Row | effect of a mutation on the interaction | Variant
7 | with no effect | D351H

Variants of: B1
Conditions: with tead1_human TEAD1, P28347

Row | effect of a mutation on the interaction | Variant
8 | with no effect | D351H

Variants of: B1
Conditions: with tead2_human TEAD2, Q15562

Row | effect of a mutation on the interaction | Variant
9 | with no effect | D351H

Variants of: B1
Conditions: with tead3_human TEAD3, Q99594

Row | effect of a mutation on the interaction | Variant
10 | with no effect | D351H

Variants of: B1
Conditions: with tert_human TERT

Row | effect of a mutation on the interaction | Variant
11 | with no effect | D351H

Variants of: B1
Conditions: with tgfr2_human TGFBR2, P37173

Row | effect of a mutation on the interaction | Variant
12 | with no effect | D351H

Variants of: B1
Conditions: with tnr14_human TNFRSF14, Q92956

Row | effect of a mutation on the interaction | Variant
13 | with no effect | D351H

Variants of: B1
Conditions: with tpx2_human TPX2, Q9ULW0

Row | effect of a mutation on the interaction | Variant
14 | with no effect | D351H

Variants of: B1
Conditions: with tsc2_human TSC2, P49815

Row | effect of a mutation on the interaction | Variant
15 | with no effect | D351H

Variants of: B1
Conditions: with tshr_human TSHR

Row | effect of a mutation on the interaction | Variant
16 | with no effect | D351H

Variants of: B1
Conditions: with vegfa_human VEGFA

Row | effect of a mutation on the interaction | Variant
17 | with no effect | D351H

Variants of: B1
Conditions: with vhl_human VHL

Row | effect of a mutation on the interaction | Variant
18 | with no effect | D351H

Variants of: B1
Conditions: with wt1_human WT1, P19544

Row | effect of a mutation on the interaction | Variant
19 | with no effect | D351H

Variants of: B1
Conditions: with wwtr1_human WWTR1, Q9GZV5

Row | effect of a mutation on the interaction | Variant
20 | with no effect | D351H

Variants of: B1
Conditions: with xpo1_human XPO1, O14980

Row | effect of a mutation on the interaction | Variant
21 | with no effect | D351H

Variants of: B1
Conditions: with 1433b_human YWHAB

Row | effect of a mutation on the interaction | Variant
22 | with no effect | D351H

Variants of: B1
Conditions: with 1433e_human YWHAE

Row | effect of a mutation on the interaction | Variant
23 | with no effect | D351H

Variants of: B1
Conditions: with 1433z_human YWHAZ

Row | effect of a mutation on the interaction | Variant
24 | with no effect | D351H

Variants of: B1
Conditions: with arc1a_human ARPC1A

Row | effect of a mutation on the interaction | Variant
25 | causing an interaction | D351H
